Experimental data reported in patent US20170226172A1 (NEW YORK UNIVERSITY, published 2017).
Read-outs that look alike come from different tables or passages of the source.

Assays:
[1] = target: T1, FGFR4/alpha-klotho on BaF3 cells (Example 12) (Homo sapiens (Human), UniProt P22455 22-802; Q9UEF7 34-1012); assay: FACS competitive binding on BaF3 cells expressing FGFR4 and Klotho, against 0.2 ug/mL FGF-23; drug 0 to 2430 nM; the number stands beside the legend entry under the title 'FACS CO… BINDING IC50', the unit is that of the axis (nM DRUG)
T1 construct: also called BaF3 cells expressing FGFR4 and αklotho; BaF3-FGFR4/αklotho cells

[2] = target: T2, FGFR1c/alpha-klotho on BaF3 cells (Example 12) (Homo sapiens (Human), UniProt P11362 22-822; Q9UEF7 34-1012); assay: FACS competitive binding on BaF3 cells expressing FGFR1c and Klotho, against 0.2 ug/mL FGF-23; drug 0 to 2430 nM; the number stands beside the legend entry under the title 'FACS CO… BINDING IC50', the unit is that of the axis (nM DRUG)
T2 construct: also called BaF3 cells expressing FGFR1c and αklotho; BAF3 lines engineered to express FGFR1c/αklotho

[3] = target: T3, alpha-Klotho with endogenous FGFRs on HEK293-alphaKlotho cells; assay: cell-based or functional assay
[4] = target: T3, alpha-Klotho with endogenous FGFRs on …; assay: FACS competition on HEK293-alphaKlotho cells: peptide 0.01 to about 1000 nM against 0.2 ug/mL full-length human FGF23, geo mean of PE intensity
[5] = target: T3, alpha-Klotho with endogenous FGFRs on …; assay: FACS competition on HEK293-alphaKlotho cells against a sub-saturating dose of FGF23
Source text: IC50 values were derived from the resulting inhibition binding curves (FIG. 7).

[6] = target: T3, alpha-Klotho with endogenous FGFRs on …; assay: FACS competition on HEK293-alphaKlotho cells: peptide 0.01 to about 1000 nM against 0.2 ug/mL full-length human FGF23, geo mean of PE intensity; remark: listed apart in the source
[7] = target: FGFR1c and alpha-klotho, human, on BAF3 cells (Example 7) (human, UniProt P11362 22-822; Q9UEF7 34-1012); assay: cell-based or functional assay
[8] = target: T3, alpha-Klotho with endogenous FGFRs on …; assay: FACS competition on HEK293-alphaKlotho cells: peptide 0.01 to about 1000 nM against 0.2 ug/mL full-length human FGF23, geo mean of PE intensity; remark: listed apart in the source
[9] = target: FGFR1c and alpha-klotho, murine, on BAF3 cells (Example 7) (mouse, UniProt P16092 22-822; O35082 35-1014); assay: cell-based or functional assay
[10] = target: T4, FGFR1c/alpha-klotho receptor complex, murine, pre-formed (SPR analyte) (mouse, UniProt P16092 22-376; O35082 35-982); assay: SPR competition; full-length murine FGF23 on the Biacore chip, set amount of pre-formed receptor complex with increasing c-tail construct
T4 construct: also called pre-formed receptor complex (mouse)
T4 sequence (looked up) 1: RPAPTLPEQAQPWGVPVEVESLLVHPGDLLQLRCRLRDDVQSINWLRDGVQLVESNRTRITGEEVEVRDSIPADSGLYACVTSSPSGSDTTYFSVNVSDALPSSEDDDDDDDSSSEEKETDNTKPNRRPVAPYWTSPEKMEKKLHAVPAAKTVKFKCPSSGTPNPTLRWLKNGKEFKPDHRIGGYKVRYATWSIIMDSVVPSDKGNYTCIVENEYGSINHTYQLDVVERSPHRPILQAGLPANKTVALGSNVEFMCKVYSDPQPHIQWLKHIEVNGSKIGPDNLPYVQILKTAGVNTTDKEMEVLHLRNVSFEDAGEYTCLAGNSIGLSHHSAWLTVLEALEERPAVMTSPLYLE
T4 sequence (looked up) 2: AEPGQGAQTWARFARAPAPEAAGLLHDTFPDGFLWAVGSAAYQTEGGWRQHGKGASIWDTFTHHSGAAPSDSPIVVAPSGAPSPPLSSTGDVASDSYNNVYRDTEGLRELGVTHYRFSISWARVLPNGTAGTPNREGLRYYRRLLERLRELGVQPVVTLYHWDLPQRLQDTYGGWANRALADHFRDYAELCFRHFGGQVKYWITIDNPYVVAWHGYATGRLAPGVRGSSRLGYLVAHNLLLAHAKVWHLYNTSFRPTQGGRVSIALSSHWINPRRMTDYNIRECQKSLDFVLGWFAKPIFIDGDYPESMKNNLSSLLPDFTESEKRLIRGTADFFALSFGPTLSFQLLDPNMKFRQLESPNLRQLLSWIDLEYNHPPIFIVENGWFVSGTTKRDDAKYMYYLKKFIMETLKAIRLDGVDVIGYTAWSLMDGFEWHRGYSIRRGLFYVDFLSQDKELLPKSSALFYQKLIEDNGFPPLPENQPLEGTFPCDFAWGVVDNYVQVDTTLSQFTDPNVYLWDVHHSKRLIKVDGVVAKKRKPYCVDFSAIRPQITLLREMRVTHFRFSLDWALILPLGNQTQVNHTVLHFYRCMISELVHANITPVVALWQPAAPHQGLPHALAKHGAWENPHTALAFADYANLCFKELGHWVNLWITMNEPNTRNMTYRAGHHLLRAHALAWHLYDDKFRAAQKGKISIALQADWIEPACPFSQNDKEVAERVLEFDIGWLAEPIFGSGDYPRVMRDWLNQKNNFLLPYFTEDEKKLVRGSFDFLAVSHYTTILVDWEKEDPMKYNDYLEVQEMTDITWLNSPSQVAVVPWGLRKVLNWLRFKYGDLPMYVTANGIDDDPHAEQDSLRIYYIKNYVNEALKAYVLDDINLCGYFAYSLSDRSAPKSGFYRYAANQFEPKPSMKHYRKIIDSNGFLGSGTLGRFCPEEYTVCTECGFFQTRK
Procedure: The potency of the human and murine constructs were determined via both competitive inhibition using SPR and cellular viability assays (Cell Titer Glo). […] Experiments were done in a species specific manner meaning that all components were from a single species, either mouse or human. For the functional experiments, BAF3 cells were engineered to stably express FGFR1c and α-klotho. BAF3 cells are dependent on IL-3 for growth. […] Once again this was done in a species specific manner.

B1: Wild Type Human FGF23 c-tail 180-251 (72 amino acid peptide) (peptide)
peptide: SAEDDSERDPLNVLKPRARMTPAPASCSQELPSAEDNSPMASDPLGVVRGGRVNTHAGGTGPEGCRPFAKFI
notes: also called FGF23 c-tail peptide; unconjugated FGF23 c-tail peptide
Q: What does the source list for B1?
A: IC50 [1]: 23 nM; IC50 [2]: 15.4 nM; IC50, inhibition of FGF23 signaling (Egr1-luciferase) in HEK293 cells expressing alpha-klotho (prior to assay optimization) [3]: 81.9 nM; IC50 [4]: 2.9 nM; IC50 (read off the curve) [5]: ~20 nM

B2: Human FGF23 c-tail 69 (-3 amino acid construct) peptide (peptide)
peptide: SAEDDSERDPLNVLKPRARMTPAPASCSQELPSAEDNSPMASDPLGVVRGGRVNTHAGGTGPEGCRPFA
notes: also called truncated FGF23 c-tail peptide, 69 amino acids
Q: For B2, which IC50 [6] is on record?
A: 2.8 nM

B3: Human Wild Type FGF23 c-tail Fc (FGF23-c-tail-FC1), mature (Fc fusion)
chain: EPKSCDKTHTCPPCPAPEAAGAPSVFLFPPKPKDTLMISRTPEVTCVVVDVSHEDPEVKFNWYVDGVEVHNAKTKPREEQYNSTYRVVSVLTVLHQDWLNGKEYKCKVSNKALPAPIEKTISKAKGQPREPQVYTLPPSREEMTKNQVSLTCLVKGFYPSDIAVEWESNGQPENNYKTTPPVLDSDGSFFLYSKLTVDKSRWQQGNVFSCSVMHEALHNHYTQKSLSLSPGGGGGSSAEDDSERDPLNVLKPRARMTPAPASCSQELPSAEDNSPMASDPLGVVRGGRVNTHAGGTGPEGCRPFAKFI
notes: Made in CHO cells; also called HuFGF23 c-tail Fc; huFGF23-Fc
Q: Which IC50 [2] does the source give for B3 here?
A: 20.4 nM

Q: And the “IC50, inhibition of FGF23-mediated Egr1-luciferase activity in HEK293 cells expressing alpha-klotho (after assay optimization)” value [3]?
A: 21.5 nM

Q: And the “IC50, inhibition of FGF23-mediated Egr1-luciferase activity in HEK293 cells expressing alpha-klotho (prior to assay optimization)” value [3]?
A: 202 nM

Q: What about the “IC50, cellular viability (Cell Titer Glo) of BAF3 cells expressing FGFR1c and alpha-klotho kept alive by FGF23” value [7] of the same binder?
A: 53 nM

Q: And the “IC50 (read off the curve)” value [5]?
A: ~10 nM

B4: Human FGF23 c-tail 70 (-2 amino acid construct) peptide (peptide)
peptide: SAEDDSERDPLNVLKPRARMTPAPASCSQELPSAEDNSPMASDPLGVVRGGRVNTHAGGTGPEGCRPFAK
notes: also called truncated FGF23 c-tail peptide, 70 amino acids
Q: How did the IC50 [8] turn out when B4 was run?
A: 2.4 nM

B5: Wild Type Murine FGF23 c-tail Fc (muFGF23-c-tail-FC1), mature (Fc fusion)
chain: VPRDAGCKPCICTVPPVSSVFIFPPKPKDVLTITLTPKVTCVVVDISKDDPEVQFSWFVDDVEVHTAQTQPREEQFNSTFRSVSELPIMHQDWLNGKAFACAVNSAAFPAPIEKTISKTKGRPKAPQVYTIPPPKEQMAKDKVSLTCMITDFFPEDITVEWQWNGQPAENYKNTQPIMDTDGSYFVYSKLNVQKSNWEAGNTFTCSVLHEGLHNHHTEKSLSHSPGGGGGSSAEDPPERDPLNVLKPRPRATPVPVSCSRELPSAEEGGPAASDPLGVLRRGRGDARGGAGGADRCRPFPRFV
notes: also called Murine FGF23-Fc; surrogate molecule
Q: With B5 as the binder, how does the “IC50, cellular viability (Cell Titer Glo) of BAF3 cells expressing FGFR1c and alpha-klotho kept alive by FGF23” value [9] read?
A: 35 nM

Q: What about the Ki [10] of the same binder?
A: 10 nM
